Data as given in patent US20020161201A1.

Target: bovine submaxillary mucin type I (bovine)
Test: competition ELISA with biotinylated CC49 SCA, mucin

“non-PEGylated CC49 SCA (Native-CC49) (scFv)” gave a Kd of 3.6 nM.
biotinylated CC49 SCA (scFv) gave a Kd of 6.2 nM.
